Results published in paper PMC3334620.

Biological target: T1, Gcr1 (Saccharomyces cerevisiae) (UniProt P07261)
T1 sequence: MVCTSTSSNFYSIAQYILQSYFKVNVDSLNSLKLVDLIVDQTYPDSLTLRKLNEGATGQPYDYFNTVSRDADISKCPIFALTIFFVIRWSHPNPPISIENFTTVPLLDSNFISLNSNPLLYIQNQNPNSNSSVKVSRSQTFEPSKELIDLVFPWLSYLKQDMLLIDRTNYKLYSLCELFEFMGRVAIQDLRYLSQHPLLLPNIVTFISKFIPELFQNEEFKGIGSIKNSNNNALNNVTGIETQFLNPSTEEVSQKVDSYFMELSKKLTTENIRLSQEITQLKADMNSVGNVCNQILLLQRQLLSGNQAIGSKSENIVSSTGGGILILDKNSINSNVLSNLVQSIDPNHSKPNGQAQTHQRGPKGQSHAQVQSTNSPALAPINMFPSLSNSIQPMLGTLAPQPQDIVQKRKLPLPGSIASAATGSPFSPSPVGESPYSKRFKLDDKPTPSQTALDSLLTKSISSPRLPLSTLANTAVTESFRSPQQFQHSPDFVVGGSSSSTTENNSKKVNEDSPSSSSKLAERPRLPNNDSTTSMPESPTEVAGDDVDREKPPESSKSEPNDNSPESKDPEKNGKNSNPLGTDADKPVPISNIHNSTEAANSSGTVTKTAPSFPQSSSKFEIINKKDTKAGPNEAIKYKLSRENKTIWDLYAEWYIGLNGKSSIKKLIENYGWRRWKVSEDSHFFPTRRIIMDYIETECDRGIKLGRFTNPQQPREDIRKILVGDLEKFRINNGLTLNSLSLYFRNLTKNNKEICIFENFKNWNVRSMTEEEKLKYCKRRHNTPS
Details: 100 nM

| Sequence | binding signal (PBM E-score (-0.5 to 0.5)) |
| --- | --- |
| AGCATCCT (double strand) [8-mer AGCATCCT] | 0.465 |
| AGCTTCCT (double strand) [8-mer AGCTTCCT] | 0.485 |
| AGGAAGCC (double strand) [8-mer AGGAAGCC] | 0.487 |
| AGGATGCC (double strand) [8-mer AGGATGCC] | 0.47 |
| CAGCGTCC (double strand) [8-mer CAGCGTCC] | 0.465 |
| CGGCTTCC (double strand) [8-mer CGGCTTCC] | 0.472 |
| GAGCTTCC (double strand) [8-mer GAGCTTCC] | 0.469 |
| GCTTCCTA (double strand) [8-mer GCTTCCTA] | 0.468 |
| GGAAGCCA (double strand) [8-mer GGAAGCCA] | 0.48 |
| GGAAGCCC (double strand) [8-mer GGAAGCCC] | 0.473 |
| GGAATCCA (double strand) [8-mer GGAATCCA] | 0.473 |
| GGAATCCC (double strand) [8-mer GGAATCCC] | 0.464 |
| GGATTCCA (double strand) [8-mer GGATTCCA] | 0.476 |
| GGCATCCA (double strand) [8-mer GGCATCCA] | 0.469 |
| GGCTTCCA (double strand) [8-mer GGCTTCCA] | 0.483 |

Biological target: T2, Msn1 (Saccharomyces cerevisiae) (UniProt P22148)
T2 sequence: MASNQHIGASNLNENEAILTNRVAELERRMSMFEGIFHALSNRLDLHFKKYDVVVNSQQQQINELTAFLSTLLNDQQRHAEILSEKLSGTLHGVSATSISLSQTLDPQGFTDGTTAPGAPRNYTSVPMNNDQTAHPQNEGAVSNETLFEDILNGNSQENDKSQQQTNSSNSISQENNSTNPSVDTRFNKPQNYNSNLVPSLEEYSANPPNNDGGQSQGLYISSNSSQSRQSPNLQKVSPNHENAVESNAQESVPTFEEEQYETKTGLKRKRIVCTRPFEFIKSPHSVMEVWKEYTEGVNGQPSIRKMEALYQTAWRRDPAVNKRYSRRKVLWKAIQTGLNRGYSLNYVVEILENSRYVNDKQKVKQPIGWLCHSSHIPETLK
Details: 200 nM

| Sequence | binding signal (PBM E-score (-0.5 to 0.5)) |
| --- | --- |
| AAAATGTC (double strand) [8-mer AAAATGTC] | 0.491 |
| AAATGTCC (double strand) [8-mer AAATGTCC] | 0.498 |
| AATGTCCA (double strand) [8-mer AATGTCCA] | 0.493 |
| AATGTCCC (double strand) [8-mer AATGTCCC] | 0.496 |
| AATGTCCT (double strand) [8-mer AATGTCCT] | 0.496 |
| AGGACAAA (double strand) [8-mer AGGACAAA] | 0.498 |
| AGGACATA (double strand) [8-mer AGGACATA] | 0.494 |
| ATATGTCC (double strand) [8-mer ATATGTCC] | 0.496 |

Biological target: T3, Hmlalpha2 (Saccharomyces cerevisiae) (UniProt P0CY09)
T3 sequence: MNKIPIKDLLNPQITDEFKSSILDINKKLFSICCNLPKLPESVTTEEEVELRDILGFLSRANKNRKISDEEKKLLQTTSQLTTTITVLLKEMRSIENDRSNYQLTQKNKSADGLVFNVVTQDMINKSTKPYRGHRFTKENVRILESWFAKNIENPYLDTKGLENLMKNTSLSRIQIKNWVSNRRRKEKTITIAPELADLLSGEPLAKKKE
Details: 200 nM

| Sequence | binding signal (PBM E-score (-0.5 to 0.5)) |
| --- | --- |
| AATTACAT (double strand) [8-mer AATTACAT] | 0.489 |
| ACATGTAA (double strand) [8-mer ACATGTAA] | 0.488 |
| ATTACACA (double strand) [8-mer ATTACACA] | 0.492 |
| ATTACACG (double strand) [8-mer ATTACACG] | 0.495 |
| ATTACATA (double strand) [8-mer ATTACATA] | 0.488 |
| ATTACATG (double strand) [8-mer ATTACATG] | 0.495 |
| CATGTAAA (double strand) [8-mer CATGTAAA] | 0.491 |
| CATGTTAA (double strand) [8-mer CATGTTAA] | 0.489 |
| CCATGTAA (double strand) [8-mer CCATGTAA] | 0.486 |
| CCGTGTAA (double strand) [8-mer CCGTGTAA] | 0.486 |
| CGTGTAAA (double strand) [8-mer CGTGTAAA] | 0.493 |
| CTTTACAC (double strand) [8-mer CTTTACAC] | 0.489 |
| TATGTAAA (double strand) [8-mer TATGTAAA] | 0.49 |
| TCGTGTAA (double strand) [8-mer TCGTGTAA] | 0.49 |
| TGTGTAAA (double strand) [8-mer TGTGTAAA] | 0.489 |

Biological target: T4, Ecm22 (Saccharomyces cerevisiae) (UniProt Q05958)
T4 sequence: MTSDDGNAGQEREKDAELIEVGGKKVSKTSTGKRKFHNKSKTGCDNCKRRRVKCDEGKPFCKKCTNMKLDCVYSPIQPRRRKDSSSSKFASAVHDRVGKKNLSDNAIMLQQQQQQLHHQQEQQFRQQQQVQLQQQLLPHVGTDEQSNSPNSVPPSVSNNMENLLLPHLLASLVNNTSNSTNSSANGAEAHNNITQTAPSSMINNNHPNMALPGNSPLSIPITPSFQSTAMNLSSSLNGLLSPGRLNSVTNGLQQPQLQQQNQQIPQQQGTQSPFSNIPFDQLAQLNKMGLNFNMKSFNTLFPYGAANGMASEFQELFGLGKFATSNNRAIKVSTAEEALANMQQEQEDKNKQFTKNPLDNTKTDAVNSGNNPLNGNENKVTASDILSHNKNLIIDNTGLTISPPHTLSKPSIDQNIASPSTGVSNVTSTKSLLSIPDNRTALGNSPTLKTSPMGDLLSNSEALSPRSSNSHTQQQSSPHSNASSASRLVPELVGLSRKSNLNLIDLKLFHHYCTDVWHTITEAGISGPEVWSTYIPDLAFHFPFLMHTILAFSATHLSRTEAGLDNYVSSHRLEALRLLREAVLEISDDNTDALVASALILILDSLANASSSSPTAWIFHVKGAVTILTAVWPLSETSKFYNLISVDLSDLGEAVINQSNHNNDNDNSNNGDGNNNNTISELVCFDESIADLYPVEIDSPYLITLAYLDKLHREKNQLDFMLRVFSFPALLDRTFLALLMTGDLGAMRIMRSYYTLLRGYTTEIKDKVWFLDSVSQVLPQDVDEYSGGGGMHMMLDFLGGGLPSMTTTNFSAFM
Details: 200 nM

| Sequence | binding signal (PBM E-score (-0.5 to 0.5)) |
| --- | --- |
| AGGAACGA (double strand) [8-mer AGGAACGA] | 0.495 |
| AGGTACGA (double strand) [8-mer AGGTACGA] | 0.495 |
| CGGAACGA (double strand) [8-mer CGGAACGA] | 0.493 |
| CTCGTACC (double strand) [8-mer CTCGTACC] | 0.496 |
| CTCGTTCC (double strand) [8-mer CTCGTTCC] | 0.496 |
| GGTACGAC (double strand) [8-mer GGTACGAC] | 0.495 |

Biological target: T5, Mot3 (Saccharomyces cerevisiae) (UniProt P54785)
T5 sequence: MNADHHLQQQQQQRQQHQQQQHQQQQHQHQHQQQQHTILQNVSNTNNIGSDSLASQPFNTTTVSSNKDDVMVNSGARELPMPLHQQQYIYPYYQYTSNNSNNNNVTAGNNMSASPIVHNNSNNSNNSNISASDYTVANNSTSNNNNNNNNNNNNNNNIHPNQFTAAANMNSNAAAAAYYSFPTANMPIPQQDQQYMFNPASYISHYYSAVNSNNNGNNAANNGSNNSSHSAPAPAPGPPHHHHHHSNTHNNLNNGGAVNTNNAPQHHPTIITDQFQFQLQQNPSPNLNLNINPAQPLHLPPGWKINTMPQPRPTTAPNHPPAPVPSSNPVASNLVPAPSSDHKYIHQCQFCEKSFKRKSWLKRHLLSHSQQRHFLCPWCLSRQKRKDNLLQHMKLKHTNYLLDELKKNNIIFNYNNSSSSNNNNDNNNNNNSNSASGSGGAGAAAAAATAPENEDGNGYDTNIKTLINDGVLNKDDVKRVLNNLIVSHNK
Details: 200 nM

| Sequence | binding signal (PBM E-score (-0.5 to 0.5)) |
| --- | --- |
| AAAGGCAC (double strand) [8-mer AAAGGCAC] | 0.495 |
| AAGGCACC (double strand) [8-mer AAGGCACC] | 0.493 |
| AAGGCACG (double strand) [8-mer AAGGCACG] | 0.496 |
| ACAGGCAC (double strand) [8-mer ACAGGCAC] | 0.495 |
| ACGTGCCT (double strand) [8-mer ACGTGCCT] | 0.494 |
| AGGCACGC (double strand) [8-mer AGGCACGC] | 0.496 |
| CAGGCACA (double strand) [8-mer CAGGCACA] | 0.493 |
| CAGGCACC (double strand) [8-mer CAGGCACC] | 0.496 |
| CAGGCACG (double strand) [8-mer CAGGCACG] | 0.496 |
| CGTGCCTA (double strand) [8-mer CGTGCCTA] | 0.495 |
| GAAGGCAC (double strand) [8-mer GAAGGCAC] | 0.495 |
| GCAGGCAA (double strand) [8-mer GCAGGCAA] | 0.493 |
| GCAGGCAC (double strand) [8-mer GCAGGCAC] | 0.497 |
| GTAGGCAC (double strand) [8-mer GTAGGCAC] | 0.495 |
| GTGCCTGA (double strand) [8-mer GTGCCTGA] | 0.493 |
